Target: T1, human PSMA (prostate specific membrane antigen), full length (human, UniProt Q04609 1-750)
T1 construct: On LNCaP or C4-2B cells (endogenous) or transduced HEK293F cells; also called FOLH1_HUMAN; hPSMA
Experiment: flow cytometry cell binding assay, bispecific antibody titrated on LNCaP cells (human PSMA)
Description: PSMA×CD3 bispecific antibodies were tested for binding to PSMA positive cell lines LNCAP, human PSMA-HEK, Chimpanzee-PSMA-HEK and Cynomolgous monkey PSMA-HEK. To assess the binding capabilities of the PSMA bispecific antibodies, the cell-binding assay was utilized (described previously). Briefly, PSMA expressing tumor cells are bound by bispecific antibodies at known concentrations and the bound antibody is detected by an anti-human kappa light chain PE conjugated detection reagent (Invitrogen). The Mean Fluorescents Intensity (MFI) is the measure of bound bispecific antibody. The MFI is converted to a relative EC₅₀. EC₅₀ is a commonly used dose-response curve, where the half maximal effective concentration or the EC₅₀ point is defined as the inflection point of the curve. EC₅₀ s were determined by measuring cell bound bispecific and known concentrations. […] The dose response curves were then diluted down to that of background or no bispecific binding. The inflection point of this curve reflects the EC₅₀ point. The calculated EC₅₀ is determined by taking the ug/ml amount of bispecific antibody at the EC₅₀ point and converting it to a molarity value based on the MW of the bispecific antibody. Bispecific antibodies were normalized for protein concentration and then incubated with the same number of cells expressing either human or cyno PSMA. The MFI at each concentration was collected by flow cytometry and plotted as a function of concentration. Data was transformed via log 10 and then plotted. Nonlinear regression of binding curves was done to determine EC₅₀ s. These relative values were used for ranking PSMA binding to target cells.
PSMA×CD3 bispecific antibodies were tested for binding to PSMA positive cell line, LNCAP, to PSMA negative cell line, PC3. To assess the binding capabilities of the PSMA bispecific antibodies, the cell-binding assay was utilized (described previously). Bispecific antibodies were normalized for protein concentration and then incubated with the same number of cells expressing either human or cyno PSMA. The MFI at each concentration was collected by flow cytometry and plotted as a function of concentration.

T1 sequence (Q04609 whole entry): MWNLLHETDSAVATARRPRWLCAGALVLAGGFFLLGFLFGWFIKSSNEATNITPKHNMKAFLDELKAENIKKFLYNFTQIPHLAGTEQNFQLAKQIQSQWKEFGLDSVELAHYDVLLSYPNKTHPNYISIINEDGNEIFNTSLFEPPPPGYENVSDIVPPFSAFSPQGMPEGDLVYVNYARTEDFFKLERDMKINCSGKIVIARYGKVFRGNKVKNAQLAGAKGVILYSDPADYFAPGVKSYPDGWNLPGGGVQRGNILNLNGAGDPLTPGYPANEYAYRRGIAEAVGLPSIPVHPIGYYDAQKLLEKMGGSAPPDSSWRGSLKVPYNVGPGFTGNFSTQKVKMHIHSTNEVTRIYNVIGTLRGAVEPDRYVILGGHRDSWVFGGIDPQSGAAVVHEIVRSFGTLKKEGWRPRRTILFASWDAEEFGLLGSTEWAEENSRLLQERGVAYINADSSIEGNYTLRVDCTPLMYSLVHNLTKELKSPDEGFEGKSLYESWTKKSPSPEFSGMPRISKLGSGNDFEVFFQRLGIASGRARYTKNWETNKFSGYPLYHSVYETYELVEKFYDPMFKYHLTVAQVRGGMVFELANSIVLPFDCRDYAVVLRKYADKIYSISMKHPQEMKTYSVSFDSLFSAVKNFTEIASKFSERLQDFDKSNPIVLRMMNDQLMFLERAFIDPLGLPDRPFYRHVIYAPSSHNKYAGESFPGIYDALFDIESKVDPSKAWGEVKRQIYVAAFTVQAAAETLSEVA

Binder | binding result
PS3B60 (bispecific antibody, human IgG4 S228P, kappa, lambda, F234A L235A, IgG4 PAA; PSMA arm first, then CD3 arm (F405L, R409K); also called PSMB344 x CD3B219) heavy 1: not shown light 1: not shown heavy 2: EVQLVESGGGLVQPGGSLRLSCAASGFTFNTYAMNWVRQAPGKGLEWVARIRSKYNNYATYYAASVKGRFTISRDDSKNSLYLQMNSLKTEDTAVYYCARHGNFGNSYVSWFAYWGQGTLVTVSSASTKGPSVFPLAPCSRSTSESTAALGCLVKDYFPEPVTVSWNSGALTSGVHTFPAVLQSSGLYSLSSVVTVPSSSLGTKTYTCNVDHKPSNTKVDKRVESKYGPPCPPCPAPEAAGGPSVFLFPPKPKDTLMISRTPEVTCVVVDVSQEDPEVQFNWYVDGVEVHNAKTKPREEQFNSTYRVVSVLTVLHQDWLNGKEYKCKVSNKGLPSSIEKTISKAKGQPREPQVYTLPPSQEEMTKNQVSLTCLVKGFYPSDIAVEWESNGQPENNYKTTPPVLDSDGSFLLYSKLTVDKSRWQEGNVFSCSVMHEALHNHYTQKSLSLSLGK light 2: QTVVTQEPSLTVSPGGTVTLTCRSSTGAVTTSNYANWVQQKPGQAPRGLIGGTNKRAPGTPARFSGSLLGGKAALTLSGVQPEDEAEYYCALWYSNLWVFGGGTKLTVLGQPKAAPSVTLFPPSSEELQANKATLVCLISDFYPGAVTVAWKADSSPVKAGVETTTPSKQSNNKYAASSYLSLTPEQWKSHRSYSCQVTHEGSTVEKTVAPTECS | binds
PS3B62 (bispecific antibody, human IgG4 S228P, kappa, lambda, F234A L235A, IgG4 PAA; PSMA arm first, then CD3 arm (F405L, R409K); also called PSMB346 x CD3B219) heavy 1: not shown light 1: not shown heavy 2: EVQLVESGGGLVQPGGSLRLSCAASGFTFNTYAMNWVRQAPGKGLEWVARIRSKYNNYATYYAASVKGRFTISRDDSKNSLYLQMNSLKTEDTAVYYCARHGNFGNSYVSWFAYWGQGTLVTVSSASTKGPSVFPLAPCSRSTSESTAALGCLVKDYFPEPVTVSWNSGALTSGVHTFPAVLQSSGLYSLSSVVTVPSSSLGTKTYTCNVDHKPSNTKVDKRVESKYGPPCPPCPAPEAAGGPSVFLFPPKPKDTLMISRTPEVTCVVVDVSQEDPEVQFNWYVDGVEVHNAKTKPREEQFNSTYRVVSVLTVLHQDWLNGKEYKCKVSNKGLPSSIEKTISKAKGQPREPQVYTLPPSQEEMTKNQVSLTCLVKGFYPSDIAVEWESNGQPENNYKTTPPVLDSDGSFLLYSKLTVDKSRWQEGNVFSCSVMHEALHNHYTQKSLSLSLGK light 2: QTVVTQEPSLTVSPGGTVTLTCRSSTGAVTTSNYANWVQQKPGQAPRGLIGGTNKRAPGTPARFSGSLLGGKAALTLSGVQPEDEAEYYCALWYSNLWVFGGGTKLTVLGQPKAAPSVTLFPPSSEELQANKATLVCLISDFYPGAVTVAWKADSSPVKAGVETTTPSKQSNNKYAASSYLSLTPEQWKSHRSYSCQVTHEGSTVEKTVAPTECS | binds
PS3B61 (bispecific antibody, human IgG4 S228P, kappa, lambda, F234A L235A, IgG4 PAA; PSMA arm first, then CD3 arm (F405L, R409K); also called PSMB345 x CD3B219) heavy 1: not shown light 1: not shown heavy 2: EVQLVESGGGLVQPGGSLRLSCAASGFTFNTYAMNWVRQAPGKGLEWVARIRSKYNNYATYYAASVKGRFTISRDDSKNSLYLQMNSLKTEDTAVYYCARHGNFGNSYVSWFAYWGQGTLVTVSSASTKGPSVFPLAPCSRSTSESTAALGCLVKDYFPEPVTVSWNSGALTSGVHTFPAVLQSSGLYSLSSVVTVPSSSLGTKTYTCNVDHKPSNTKVDKRVESKYGPPCPPCPAPEAAGGPSVFLFPPKPKDTLMISRTPEVTCVVVDVSQEDPEVQFNWYVDGVEVHNAKTKPREEQFNSTYRVVSVLTVLHQDWLNGKEYKCKVSNKGLPSSIEKTISKAKGQPREPQVYTLPPSQEEMTKNQVSLTCLVKGFYPSDIAVEWESNGQPENNYKTTPPVLDSDGSFLLYSKLTVDKSRWQEGNVFSCSVMHEALHNHYTQKSLSLSLGK light 2: QTVVTQEPSLTVSPGGTVTLTCRSSTGAVTTSNYANWVQQKPGQAPRGLIGGTNKRAPGTPARFSGSLLGGKAALTLSGVQPEDEAEYYCALWYSNLWVFGGGTKLTVLGQPKAAPSVTLFPPSSEELQANKATLVCLISDFYPGAVTVAWKADSSPVKAGVETTTPSKQSNNKYAASSYLSLTPEQWKSHRSYSCQVTHEGSTVEKTVAPTECS | binds
PS3B70 (bispecific antibody, human IgG4 S228P, kappa, lambda, F234A L235A, IgG4 PAA; PSMA arm first, then CD3 arm (F405L, R409K); also called PSMB358 x CD3B219) heavy 1: not shown light 1: not shown heavy 2: EVQLVESGGGLVQPGGSLRLSCAASGFTFNTYAMNWVRQAPGKGLEWVARIRSKYNNYATYYAASVKGRFTISRDDSKNSLYLQMNSLKTEDTAVYYCARHGNFGNSYVSWFAYWGQGTLVTVSSASTKGPSVFPLAPCSRSTSESTAALGCLVKDYFPEPVTVSWNSGALTSGVHTFPAVLQSSGLYSLSSVVTVPSSSLGTKTYTCNVDHKPSNTKVDKRVESKYGPPCPPCPAPEAAGGPSVFLFPPKPKDTLMISRTPEVTCVVVDVSQEDPEVQFNWYVDGVEVHNAKTKPREEQFNSTYRVVSVLTVLHQDWLNGKEYKCKVSNKGLPSSIEKTISKAKGQPREPQVYTLPPSQEEMTKNQVSLTCLVKGFYPSDIAVEWESNGQPENNYKTTPPVLDSDGSFLLYSKLTVDKSRWQEGNVFSCSVMHEALHNHYTQKSLSLSLGK light 2: QTVVTQEPSLTVSPGGTVTLTCRSSTGAVTTSNYANWVQQKPGQAPRGLIGGTNKRAPGTPARFSGSLLGGKAALTLSGVQPEDEAEYYCALWYSNLWVFGGGTKLTVLGQPKAAPSVTLFPPSSEELQANKATLVCLISDFYPGAVTVAWKADSSPVKAGVETTTPSKQSNNKYAASSYLSLTPEQWKSHRSYSCQVTHEGSTVEKTVAPTECS | binds
PS3B64 (bispecific antibody, human IgG4 S228P, kappa, lambda, F234A L235A, IgG4 PAA; PSMA arm first, then CD3 arm (F405L, R409K); also called PSMB349 x CD3B219) heavy 1: not shown light 1: not shown heavy 2: EVQLVESGGGLVQPGGSLRLSCAASGFTFNTYAMNWVRQAPGKGLEWVARIRSKYNNYATYYAASVKGRFTISRDDSKNSLYLQMNSLKTEDTAVYYCARHGNFGNSYVSWFAYWGQGTLVTVSSASTKGPSVFPLAPCSRSTSESTAALGCLVKDYFPEPVTVSWNSGALTSGVHTFPAVLQSSGLYSLSSVVTVPSSSLGTKTYTCNVDHKPSNTKVDKRVESKYGPPCPPCPAPEAAGGPSVFLFPPKPKDTLMISRTPEVTCVVVDVSQEDPEVQFNWYVDGVEVHNAKTKPREEQFNSTYRVVSVLTVLHQDWLNGKEYKCKVSNKGLPSSIEKTISKAKGQPREPQVYTLPPSQEEMTKNQVSLTCLVKGFYPSDIAVEWESNGQPENNYKTTPPVLDSDGSFLLYSKLTVDKSRWQEGNVFSCSVMHEALHNHYTQKSLSLSLGK light 2: QTVVTQEPSLTVSPGGTVTLTCRSSTGAVTTSNYANWVQQKPGQAPRGLIGGTNKRAPGTPARFSGSLLGGKAALTLSGVQPEDEAEYYCALWYSNLWVFGGGTKLTVLGQPKAAPSVTLFPPSSEELQANKATLVCLISDFYPGAVTVAWKADSSPVKAGVETTTPSKQSNNKYAASSYLSLTPEQWKSHRSYSCQVTHEGSTVEKTVAPTECS | binds
PS3B71 (bispecific antibody, human IgG4 S228P, kappa, lambda, F234A L235A, IgG4 PAA; PSMA arm first, then CD3 arm (F405L, R409K); also called PSMB359 x CD3B219) heavy 1: not shown light 1: not shown heavy 2: EVQLVESGGGLVQPGGSLRLSCAASGFTFNTYAMNWVRQAPGKGLEWVARIRSKYNNYATYYAASVKGRFTISRDDSKNSLYLQMNSLKTEDTAVYYCARHGNFGNSYVSWFAYWGQGTLVTVSSASTKGPSVFPLAPCSRSTSESTAALGCLVKDYFPEPVTVSWNSGALTSGVHTFPAVLQSSGLYSLSSVVTVPSSSLGTKTYTCNVDHKPSNTKVDKRVESKYGPPCPPCPAPEAAGGPSVFLFPPKPKDTLMISRTPEVTCVVVDVSQEDPEVQFNWYVDGVEVHNAKTKPREEQFNSTYRVVSVLTVLHQDWLNGKEYKCKVSNKGLPSSIEKTISKAKGQPREPQVYTLPPSQEEMTKNQVSLTCLVKGFYPSDIAVEWESNGQPENNYKTTPPVLDSDGSFLLYSKLTVDKSRWQEGNVFSCSVMHEALHNHYTQKSLSLSLGK light 2: QTVVTQEPSLTVSPGGTVTLTCRSSTGAVTTSNYANWVQQKPGQAPRGLIGGTNKRAPGTPARFSGSLLGGKAALTLSGVQPEDEAEYYCALWYSNLWVFGGGTKLTVLGQPKAAPSVTLFPPSSEELQANKATLVCLISDFYPGAVTVAWKADSSPVKAGVETTTPSKQSNNKYAASSYLSLTPEQWKSHRSYSCQVTHEGSTVEKTVAPTECS | binds
PS3B63 (bispecific antibody, human IgG4 S228P, kappa, lambda, F234A L235A, IgG4 PAA; PSMA arm first, then CD3 arm (F405L, R409K); also called PSMB347 x CD3B219) heavy 1: not shown light 1: not shown heavy 2: EVQLVESGGGLVQPGGSLRLSCAASGFTFNTYAMNWVRQAPGKGLEWVARIRSKYNNYATYYAASVKGRFTISRDDSKNSLYLQMNSLKTEDTAVYYCARHGNFGNSYVSWFAYWGQGTLVTVSSASTKGPSVFPLAPCSRSTSESTAALGCLVKDYFPEPVTVSWNSGALTSGVHTFPAVLQSSGLYSLSSVVTVPSSSLGTKTYTCNVDHKPSNTKVDKRVESKYGPPCPPCPAPEAAGGPSVFLFPPKPKDTLMISRTPEVTCVVVDVSQEDPEVQFNWYVDGVEVHNAKTKPREEQFNSTYRVVSVLTVLHQDWLNGKEYKCKVSNKGLPSSIEKTISKAKGQPREPQVYTLPPSQEEMTKNQVSLTCLVKGFYPSDIAVEWESNGQPENNYKTTPPVLDSDGSFLLYSKLTVDKSRWQEGNVFSCSVMHEALHNHYTQKSLSLSLGK light 2: QTVVTQEPSLTVSPGGTVTLTCRSSTGAVTTSNYANWVQQKPGQAPRGLIGGTNKRAPGTPARFSGSLLGGKAALTLSGVQPEDEAEYYCALWYSNLWVFGGGTKLTVLGQPKAAPSVTLFPPSSEELQANKATLVCLISDFYPGAVTVAWKADSSPVKAGVETTTPSKQSNNKYAASSYLSLTPEQWKSHRSYSCQVTHEGSTVEKTVAPTECS | binds
